# Source: the domain aggregation screens of Martell et al. (2025)
# Experiment: soluble fraction after stress (log2 fold change); higher = more stays soluble; pooled small domains, quantitative proteomics
# Settings: stress: pH 4
# How it was run: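 After pH 4 stress, pooled custom libraries of small protein domains were quantified with high-throughput quantitative proteomics. Aggregation propensity is taken from the fold change in each domain's soluble amount following the acid stress. The scale is log2, where higher values mean more stayed soluble.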
row,Sequence,soluble fraction (log2)
1,HMSSIGERISDVRKARGYTQDQLAERIHVSRQTISHWENERALPDFESIKQLSQVLGYDFSS,0.0836
2,HMYRLDVEISDEIKRDIDEETLSEIKGIIAEDPRPSYQNDETRIYRFTFAGREISFRVKDRTATVTEIL,-0.736
3,HMKNNITFSEFLHEVDNGRVIKVNIQGNNITGILADGKSFNTYTPNDPSLIEKLTSKGVSISATPI,0.127
4,HMANILKHKNKDGVITSYTIRVYHGYDEAGKRLRPYTMNYKPAPNMTARQIEKELNRQAVQFEEQIKNGYA,-0.182
5,HMAAFGDLLSELRRDMNMTQDELAKVLFVSPGTISNYENNIHFPDVPKLKQIAQYFGVTTDYLLG,-1
6,HMGNHRNMSAEEEAAILAPFKARAEAGELVEISEIAKAYQSAVDHPISRGQIYFVLHRHGWRKV,-0.638
7,HMTQHDIVPLMLKMVDVLTQFVELDIPFLQQERQTRLAALNAMMGRADVSLAEKYRRIMEAYQVETEYG,-0.254
8,HMSVLLKEEGSLQLARHGAAYFIIYSAQEHPNQRRHLKISEEESNRIMEGTPIEEIFLAYSG,-0.972
9,HMPPRFVPATGADLRRWLDVSGLTAEAAGDLLGVSGARFRQWLSRYRSAPLPDPVRALLVALLRP,-0.156
10,HMVVPRSFKYEVLAHGGWAGNAQRYQTKEEALHAGLALSRRWTAVEDYRAVPSDDLPNQPAL,0.127
11,HMDSQSVFADLVKSLSQKIASIPVWFEYTKNEQYDLISSYVSAKLKDLGVEFSQEEKEKFITMFMNS,-0.34
12,HMNLKDINLNVRHYKIIDFVREHGYASIETLTRQFGVSAQTVRRDIIYLDNQAVLKRHHGGVGTLPG,-0.723
13,HMAALKVAVLTVSDTRTQETDTSGAFLEGALREAGHEIADRQIVIDDVYQLRAIVSQWIADPEVEVILT,-1.31
14,HMLFQGDTPAENIILEILSKNGTTASDSIIKQSGLSVSDFNQAATMLEIKGLISNNGGNIWSL,-0.254
15,HMAQSLAQKINNYILTNRSSIANVAKSIGYSRTTVSRYLAGKYDSDPTDLENKLAEFLAHETGE,0.017
16,HMLKPIHKDWSPNGDAKEILLKAGITEEFIQKELPEFIMYWSERNEESDIWNSKFIAHIRRRWGRFS,-1.23
17,HMTQLEVDLFERLITISGVGPRLALAVLSGLEPPDLLRAIQDSDIVRLQGIPGVGKKTAERISLELKDKLS,-0.854
18,HMETLYGQIVNDIMEKIESNAWPVGYVIPTESDFQKQYGVSRATVRNAILKLAHLGYLVRKKGSGTYVTRP,-0.287
19,HMTRETTQAWWEARQTLPSGEQRSAASLSQEASHVRRFYRWAMQQGLTDRNPADWLPDVRQK,-0.062

row,Sequence,soluble fraction (log2)
1,HMPRYQQIARQLKTAIEHGELKPGARLPSSRTWSQELGISRSTVESAYTELVAQGWLERRGQAGTFVSAQL,0.0517
2,HMTTIFDNINGELRRRHLTQQDLAKTIEIDRRTWSKWQDKNDMPASVLLQIAKWLNVTLDYLTRD,0.0559
3,HMKEDSTIIERIISNLSSASLKTQKAFEYKLTDLMFRFSEGEYEWSSAMEVIREELLPFLNK,-0.645
4,HMGESFEELAREISDDTGSKTEGGETGLFPRGVMAPQFEEAAFLLKVGDISEPIRTKFGYHIIKLKEIKP,-0.0823
5,HMLLGDYIQKLRNQRGLSQQEFADKLGIGRSTLANYEQNKRSPDYETLIEISKFFNVSIDELLGV,-0.342
6,HMSDIIVQGNRRLDTDLIITDSQIREIGTDEKSLSLAVKNLYKTGYFENVQIFKDNSVVFINVKENQ,-0.358
7,HMKKMSFKEAFLKYVEIKDNPYNMESVKMLVSLQPLIVKAYSILGVDKVRRLNYVKTKIQDAIINGD,0.0648
8,HMVLALRGIVQGGAEPLVILSDGRTSQSLAVGERFLAYEVVEIGRTGVRLRGPEGEIWLAMASF,-1.37
9,HMNTKDRIKQLAAQRKITIAELERKLHIANGTIGKWDKQNPSIEPLKKLADYFGVTTDYLLGRT,-0.219
10,HMRLREETRKVDKTGLIQVDGRHYRVPDEYSQKDVQILMDDNSIMVYRKGDFVIELDKETSVYMPH,-1.02
11,HMSLAVFLQGLLEEKQLKKADVIRRTGMEPTYGYHIFDGHKKHPARSKVLLLALAMGLTVKEAQHLLYYAG,-0.544
12,HMVIGKHSGSHTLVNDLAKRGITLDKEESATLLEMVRKAAVGLHRSISSDELYGLYKDMKSGQDPFEDS,0.14
13,HMQFLKPQDVLFLLKLVVLKGPASIFPAVPESLGLSKAEVHNSAKRVRGARLLPHDSWNPLRKNLLEFL,0.0341
14,HMTPADEAGNDLDIGQTVKILRRVSEGQYEVSYRGTTWQARALNAQAAVEPSFAVIGGKEGNILLVHL,-0.115
15,HMKTTKDSVFEYIQKELMTNEEYKQGINTNVIAQHFGLQRSNISTILNELVKEDRLEKTNTRPVLYFLPQ,0.184
16,HMQNMVYVATKDIPAGGVIDQDSVSKTAISTSIDTSLYITDDDLGKIAVVNISQGQSVFSNMVGT,-0.585
17,HMQPDDELVRLLLIKIFNDKQLKVNPAVINYLLRRIDRSFESINNFVKKIDEFSLEKGRKITVNLVSGFF,-1.43
18,HMTGKTTLEYLNPLLERGIPVWDYLAKASGKAKEEVQEMVSKGLVPGAEAAKAIADYMGAEFAGSMA,-0.343
19,HMAVSSYSVKRYIRNMIQAEDPSAPFSDEALRLALLAHGIAVSRRVVTKYRMAMDIPSSSQRRKR,-0.12
